Laboratory results published in the supplement of paper PMC7125110.
± gives the standard error. Variants at the floor of the assay were thinned out.

B1: glmS ribozyme (parent)
chain: AUAAAAGCGCCAGAACUACAGAAAUGUAGUUGACGAGGAGGAGGUUUAUCGAAUUUUCGGCGGAUGCCUCCAAA

Variants of: B1
Assay: self-cleavage kobs at 10000 uM GlcN6P; higher = faster cleavage; RNA array
Conditions: with glucosamine-6-phosphate
In short: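 kobs was derived by fitting per-tile medians to one- or two-exponential decays after normalising signals to baseline and to non-cleaving reference variants. Those signals came from barcoded ribozyme variants transcribed in situ by E. coli RNA polymerase on sequenced MiSeq chips, followed through a hybridised Cy3 probe at 37 °C and imaged over ~14 h. Glucosamine-6-phosphate (40 μM to 10 mM) in HEPES/KCl/Mg(OAc)2 buffer was flowed in. Weighted Michaelis–Menten fits across concentrations then gave kcat and KM.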

**Q.** AUAAAAGCGCCAGAACUACAGAAAUGUAGUUGACGAGGAGGAGAAUUAUCGAAUUUUGGGCGGAUGCCUCCAAA [G44A U45A C58G] was tested. Which “self-cleavage kobs at 10000 uM GlcN6P” value did it give?
**A.** < 1e-05 s⁻¹

**Q.** AUAAAAGCGCCAGAACUACAGAAAUGUAGUUGACGAGGAGGAAGUUUAUAGAAUUUUCGGCGGUUGCCUCCAAA [G43A C50A A64U] was tested. Which “self-cleavage kobs at 10000 uM GlcN6P” value did it give?
**A.** < 1e-05 s⁻¹

**Q.** AUAAAAGCGCCAGAACUACAGAAAUGUAGUUGACGAGGAGGAGGUUUAACGAAUUUUCGGCGGAUGCCUACAAA [U49A C70A] was tested. Which “self-cleavage kobs at 10000 uM GlcN6P” value did it give?
**A.** < 1e-05 s⁻¹

**Q.** How did the “self-cleavage kobs at 10000 uM GlcN6P” value turn out when AUAAAAGCGCCAGAACUACAGAAAUGUAGUUGACGAGGAGGAGGUUUAACGAACUUUCGGCGGAUGGCUCCAAA [U49A U54C C67G] was run?
**A.** < 1e-05 s⁻¹

**Q.** For AUAAAAGCGCCAGAACUACAGAAAUGUAGUUGACGAGGAGGUGGUUUAUCGAAUUUUCGGCGGCUGUCUCCAAA [A42U A64C C67U], which “self-cleavage kobs at 10000 uM GlcN6P” value is on record?
**A.** < 1e-05 s⁻¹

**Q.** For AUAAAAGCGCCAGAACUACAGAAAUGUAGUUGACGAGGAGGAGGUUAAUCGAAUUUUCAGCGGAUGCCUCUAAA [U47A G59A C71U], which “self-cleavage kobs at 10000 uM GlcN6P” value is on record?
**A.** 6.73e-05 ± 2.5e-05 s⁻¹

**Q.** For AUAAAAGCGCCAGAACUACAGAAAUGUAGUUGACGAGGAGGAGGGCUAUCGAAGUUUCGGCGGAUGCCUCCAAA [U45G U46C U54G], which “self-cleavage kobs at 10000 uM GlcN6P” value is on record?
**A.** 0.00762 ± 0.0023 s⁻¹

**Q.** How did the “self-cleavage kobs at 10000 uM GlcN6P” value turn out when AUAAAAGCGCCAGAACUACAGAAAUGUAGUUGACGAGGAGGAAGUUUAUCGCAUUUUAGGCGGAUUGCGCCAAA [G43A A52C C58A G66U C67G U69G] was run?
**A.** < 1e-05 s⁻¹

**Q.** For AUAAAAGCGCCAGAACUACAGAAAUGUAGUUGACGAGGAGGAGGUAUAUCGAAUUUUCGGCCGAUGCCUCUAAA [U46A G62C C71U], which “self-cleavage kobs at 10000 uM GlcN6P” value is on record?
**A.** < 1e-05 s⁻¹

**Q.** How did the “self-cleavage kobs at 10000 uM GlcN6P” value turn out when AUAAAAGCGCCAGAACUACAGAAAUGUAGUUGACGAGGAGGAUGUUUAUCGAAUUUUCGGCGGAGGCUUCCAAA [G43U U65G C68U] was run?
**A.** 0.0019 ± 0.00044 s⁻¹

**Q.** Which “self-cleavage kobs at 10000 uM GlcN6P” value does the source give for AUAAAAGCGCCAGAACUACAGAAAUGUAGUUGACGAGGAGGAGGUGUAUCGAAUUUUCGGCAGAUGCCUCAAAA [U46G G62A C71A] here?
**A.** < 1e-05 s⁻¹

**Q.** Which “self-cleavage kobs at 10000 uM GlcN6P” value does the source give for AUAAAAGCGCCAGAACUACAGAAAUGUAGUUGACGAGGAGGAGGUUUUUGGAAUUUUCGGCGGAUGCCUCCAAA [A48U C50G] here?
**A.** < 1e-05 s⁻¹

**Q.** For AUAAAAGCGCCAGAACUACAGAAAUGUAGUUGACGAGGAGGAGGUUUGGCGAAUUUUCGGCGGAUGCCUCCAAA [A48G U49G], which “self-cleavage kobs at 10000 uM GlcN6P” value is on record?
**A.** 5.7e-05 ± 2.1e-05 s⁻¹

**Q.** With AUAAAAGCGCCAGAACUACAGAAAUGUAGUUGACGAGGAGGAGGUUUGUCGAAUUUUAGGCGGAUGCCUCCAAA [A48G C58A] as the variant, how does the “self-cleavage kobs at 10000 uM GlcN6P” value read?
**A.** 4.59e-05 ± 1.1e-05 s⁻¹

**Q.** With AUAAAAGCGCCAGAACUACAGAAAUGUAGUUGACGAGGAGGAGGUUUCUCGAAUUUUCGGCGGAUGCCUCGAAA [A48C C71G] as the variant, how does the “self-cleavage kobs at 10000 uM GlcN6P” value read?
**A.** 2.78e-05 ± 8.9e-06 s⁻¹

**Q.** With AUAAAAGCGCCAGAACUACAGAAAUGUAGUUGACGAGGAGGAGGGUUAUCGAAUUUUAGGCGGAUUCCUCCAAA [U45G C58A G66U] as the variant, how does the “self-cleavage kobs at 10000 uM GlcN6P” value read?
**A.** 8.19e-05 ± 1.6e-05 s⁻¹

**Q.** Which “self-cleavage kobs at 10000 uM GlcN6P” value does the source give for AUAAAAGCGCCAGAACUACAGAAAUGUAGUUGACGAGGAGGAGGUUUUUCGAACUUUCGGCGGAUGCUUCCAAA [A48U U54C C68U] here?
**A.** 9.01e-05 ± 2.8e-05 s⁻¹

**Q.** How did the “self-cleavage kobs at 10000 uM GlcN6P” value turn out when AUAAAAGCGCCAGAACUACAGAAAUGUAGUUGACGAGGAGGAGGUUUAAGAAAUUUUCGGAUGAUGCCUCCAAA [U49A C50G G51A C61A G62U] was run?
**A.** < 1e-05 s⁻¹

**Q.** Which “self-cleavage kobs at 10000 uM GlcN6P” value does the source give for AUAAAAGCGCCAGAACUACAGAAAUGUAGUUGACGAGGAGGAGGUUUAUGGAAUUUUCGGCGGAUGUGUCGAAA [C50G C67U C68G C71G] here?
**A.** 0.000108 ± 2.8e-05 s⁻¹

**Q.** Which “self-cleavage kobs at 10000 uM GlcN6P” value does the source give for AUAAAAGCGCCAGAACUACAGAAAUGUAGUUGACGAGGAGGUGGUUUUUCGAAUUUUCGGCGGACGCCUCCAAA [A42U A48U U65C] here?
**A.** < 1e-05 s⁻¹

**Q.** How did the “self-cleavage kobs at 10000 uM GlcN6P” value turn out when AUAAAAGCGCCAGAACUACAGAAAUGUAGUUGACGAGGAGGAUUUUUAUCGAAUUUUCGGCGGAGGCCUCCAAA [G43U G44U U65G] was run?
**A.** < 1e-05 s⁻¹

**Q.** AUAAAAGCGCCAGAACUACAGAAAUGUAGUUGACGAGGAGGAGGUUUAUGGAUUUUUCGGCGGAUGCCUCGAAA [C50G A53U C71G] was tested. Which “self-cleavage kobs at 10000 uM GlcN6P” value did it give?
**A.** 0.000148 ± 4e-05 s⁻¹

**Q.** For AUAAAAGCGCCAGAACUACAGAAAUGUAGUUGACGAGGAGGUGGUUUAUCGGAUUUACGGCGCAUGCCUCCAAA [A42U A52G U57A G63C], which “self-cleavage kobs at 10000 uM GlcN6P” value is on record?
**A.** < 1e-05 s⁻¹

**Q.** With AUAAAAGCGCCAGAACUACAGAAAUGUAGUUGACGAGGAGGACGUUUAUCGAAUUUUCGGCGGAUGCUUGUAAA [G43C C68U C70G C71U] as the variant, how does the “self-cleavage kobs at 10000 uM GlcN6P” value read?
**A.** < 1e-05 s⁻¹

**Q.** Which “self-cleavage kobs at 10000 uM GlcN6P” value does the source give for AUAAAAGCGCCAGAACUACAGAAAUGUAGUUGACGAGGAGGAGGUCUAUCGAAUUUUCGGCGGAUGCAUCCAAA [U46C C68A] here?
**A.** 3.47e-05 ± 1e-05 s⁻¹

**Q.** AUAAAAGCGCCAGAACUACAGAAAUGUAGUUGACGAGGAGGAGGCUUAUGGAAAUUUCGGCGGAUGCCUCCAAA [U45C C50G U54A] was tested. Which “self-cleavage kobs at 10000 uM GlcN6P” value did it give?
**A.** < 1e-05 s⁻¹

**Q.** AUAAAAGCGCCAGAACUACAGAAAUGUAGUUGACGAGGAGGAGGAUUAUCGAGUAUUCGGCGGAAGACUCCAAA [U45A A53G U55A U65A C67A] was tested. Which “self-cleavage kobs at 10000 uM GlcN6P” value did it give?
**A.** 0.000759 ± 0.00025 s⁻¹

**Q.** AUAAAAGCGCCAGAACUACAGAAAUGUAGUUGACGAGGAGGAGGAUUAUCGAAUUUUCGGCAGAUGCCUCCAAA [U45A G62A] was tested. Which “self-cleavage kobs at 10000 uM GlcN6P” value did it give?
**A.** < 1e-05 s⁻¹

**Q.** With AUAAAAGCGCCAGAACUACAGAAAUGUAGUUGACGAGGAGGAGGUUUAUGGAAUUUUCGACGGAUGCCUCGAAA [C50G G60A C71G] as the variant, how does the “self-cleavage kobs at 10000 uM GlcN6P” value read?
**A.** 0.000124 ± 3.5e-05 s⁻¹

**Q.** With AUAAAAGCGCCAGAACUACAGAAAUGUAGUUGACGAGGAGGAGGUUUACCUAAUUUUCGGCGGAUGCCUGCAAA [U49C G51U C70G] as the variant, how does the “self-cleavage kobs at 10000 uM GlcN6P” value read?
**A.** < 1e-05 s⁻¹

**Q.** Which “self-cleavage kobs at 10000 uM GlcN6P” value does the source give for AUAAAAGCGCCAGAACUACAGAAAUGUAGUUGACGAGGAGGAGGUUUUUCGAAUUUUCGGCCGAUGGCUCCAAA [A48U G62C C67G] here?
**A.** < 1e-05 s⁻¹

**Q.** For AUAAAAGCGCCAGAACUACAGAAAUGUAGUUGACGAGGAGGUGGUUUAUCGAAUUCUCGGCGGAUGCCUCCAAA [A42U U56C], which “self-cleavage kobs at 10000 uM GlcN6P” value is on record?
**A.** 5.38e-05 ± 1.2e-05 s⁻¹

**Q.** Which “self-cleavage kobs at 10000 uM GlcN6P” value does the source give for AUAAAAGCGCCAGAACUACAGAAAUGUAGUUGACGAGGAGGAGGUAGAUCGAAUUUUCGGCGGAUCCCUCCAAA [U46A U47G G66C] here?
**A.** 0.000401 ± 9.3e-05 s⁻¹

**Q.** AUAAAAGCGCCAGAACUACAGAAAUGUAGUUGACGAGGAGGAGGCUUAUCGAAUUUUCGGCGGAGGCCUUCAAA [U45C U65G C70U] was tested. Which “self-cleavage kobs at 10000 uM GlcN6P” value did it give?
**A.** 0.000225 ± 6.1e-05 s⁻¹

**Q.** With AUAAAAGCGCCAGAACUACAGAAAUGUAGUUGACGAGGAGGAGGUGUAUCGAAUGUUCGGCGGAUUCCUCCAAA [U46G U55G G66U] as the variant, how does the “self-cleavage kobs at 10000 uM GlcN6P” value read?
**A.** 0.000444 ± 0.00018 s⁻¹

**Q.** With AUAAAAGCGCCAGAACUACAGAAAUGUAGUUGACGAGGAGGAGCUUUAUUGAAUUAUCGGCGGAUGCCUCCAAA [G44C C50U U56A] as the variant, how does the “self-cleavage kobs at 10000 uM GlcN6P” value read?
**A.** < 1e-05 s⁻¹

**Q.** How did the “self-cleavage kobs at 10000 uM GlcN6P” value turn out when AUAAAAGCGCCAGAACUACAGAAAUGUAGUUGACGAGGAGGAGGUUUGUCGAAUUUUCGGCCGAUGCCUGCAAA [A48G G62C C70G] was run?
**A.** < 1e-05 s⁻¹
